For one substance, stoichiometry N results are on record in doi:10.1101/2022.12.05.519077.

This test concerns the target Kcnj13 (Kir7.1) from D. rerio fused to mCherry, with N-terminal His-tags (D. rerio). In words: mass photometry.

For “Kcnj13 (Kir7.1) from D. rerio fused to mCherry, with N-terminal His-tags (natural protein)”, the stoichiometry N (commonly the number of molecules, sites or subunits per partner or assembly) was 4.
